Reference: patent US20110245153A1

Columns and labels:
[1] = target: staphylococcal enterotoxin B (SEB), Staphylococcus aureus superantigen peptide; assay: fusion: Aga2 (yeast display)
[2] = target: toxic shock syndrome toxin-1 (TSST-1), Staphylococcus aureus superantigen peptide; assay: soluble, other

## EGIGYITK
[1]
  Kd: 0.005 µM

## wild type hVβ2.1
[2]
  Kd: 2.3 µM
